The supplement of paper PMC7877785
± gives the uncertainty stated by the source.

Assay: self-splicing fitness, log relative to wild type (ln ratio); higher = more splicing; Tetrahymena group I intron in knt gene, E. coli kanamycin selection, DiMSum; sequences stand for … in CUCUCU…GGAGGGAAAAGUUAUCAGGCAUGCACCUGGUAGCUAGUCUUUAAACCAAUAGAUUGCAUCGGUUUAAAAGGCAAGACCGUCAAAUUGCGGGAAAGGGGUCAACAGCCGUUCAGUACCAAGUCUCAGGGGAAACUUUGAGAUGGCCUUGCAAAGGGUAUGGUAAUAAGCUGACGGACAUGGUCCUAACCACGCAGCCAAGUCCUAAGUCAACAGAUCUUCUGUUGAUAUGGAUGCAGUUCACAGACUAAAUGUCGGUCGGGGAAGAUGUAUUCUUCUCAUAAGAUAUAGUCGGACCUCUCCUUAAUGGGAGCUAGCGGAUGAAGUGAUGCAACACUGGAGCCGCUGGGAACUAAUUUGUAUGCGAAAGUAUAUUGAUUAGUUUUGGAGUACUCGUGGUCG
Procedure, shortened: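 A randomised library covering all eight P1ex-region intron nucleotides was built with the intron in the knt kanamycin-resistance gene on pET-22b(+) and held in E. coli BL21(DE3). Cells were grown overnight at 37°C or 30°C on LB agar, with or without 25 μg/mL kanamycin, plus 100 μg/mL carbenicillin, 50 μM IPTG and 0.2% rhamnose, and pooled colonies were amplicon-sequenced on an Illumina HiSeq 2500. DiMSum fitness is the error-weighted combination of wild-type-normalised replicate fold changes, kanamycin versus none.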

Sequence	self-splicing fitness (ln) (30 °C)	self-splicing fitness (ln) (37 °C)
GUGAAGCAAUAUUACGUUUG	-2.25 ± 0.09	-1.85 ± 0.12
CUGCAGCAAUAUUACGGAUG	-1.16 ± 0.061	-0.415 ± 0.081
AUUCAGCAAUAUUACGGGCC	-2.57 ± 0.33	-1.82 ± 0.34
AGCUAGCAAUAUUACGGAGU	-2.94 ± 0.22	-2.18 ± 0.24
CCGCAGCAAUAUUACGGAUC	–	-2.39 ± 0.41
UCACAGCAAUAUUACGUACG	-0.786 ± 0.093	-0.747 ± 0.1
UCUGAGCAAUAUUACGCGCU	-2.53 ± 0.28	-1.59 ± 0.3
AAUUAGCAAUAUUACGUGAA	-2.4 ± 0.15	-1.22 ± 0.17
GCUGAGCAAUAUUACGGCCA	-2.02 ± 0.28	-1.9 ± 0.38
UCAAAGCAAUAUUACGAAUA	-1.92 ± 0.43	-1.78 ± 0.3
CCUUAGCAAUAUUACGGGCG	-1.64 ± 0.083	-0.95 ± 0.093
AUCUAGCAAUAUUACGCAUG	-1.88 ± 0.13	-0.806 ± 0.12
AUUUAGCAAUAUUACGGUAA	-1.59 ± 0.17	-1.54 ± 0.17
GUCUAGCAAUAUUACGGGAG	-1.87 ± 0.17	-0.423 ± 0.11
GAUUAGCAAUAUUACGUGCA	-1.7 ± 0.14	-0.0754 ± 0.09
UCAAAGCAAUAUUACGAUGA	-0.6 ± 0.074	-0.51 ± 0.084
CAACAGCAAUAUUACGGAAU	-2.96 ± 0.14	-3.05 ± 0.2
GCCGAGCAAUAUUACGAGAC	-2.93 ± 0.11	-1.54 ± 0.1
GAGGAGCAAUAUUACGAUUA	-1.73 ± 0.15	-1.8 ± 0.13
CCUUAGCAAUAUUACGCGCG	-2.71 ± 0.39	-3.39 ± 0.42
AACUAGCAAUAUUACGGUGA	-1.58 ± 0.073	-0.833 ± 0.099
UUGUAGCAAUAUUACGUUUA	-1.36 ± 0.16	-1.15 ± 0.17

Sequence	self-splicing fitness (ln) (30 °C)	self-splicing fitness (ln) (37 °C)
CAACAGCAAUAUUACGUCCC	-1.72 ± 0.14	-1.46 ± 0.2
AGGCAGCAAUAUUACGUUCA	-0.538 ± 0.08	-0.117 ± 0.13
CGGCAGCAAUAUUACGCCAA	-1.61 ± 0.15	-0.921 ± 0.13
UCUCAGCAAUAUUACGUACG	-2.45 ± 0.14	-1.26 ± 0.13
CUCCAGCAAUAUUACGAUAG	-1.6 ± 0.079	-0.825 ± 0.1
UGCAAGCAAUAUUACGAUUG	-1.93 ± 0.14	-1.55 ± 0.12
UCUUAGCAAUAUUACGUAUA	–	-3.28 ± 0.3
AACAAGCAAUAUUACGGCCU	0.0767 ± 0.082	0.355 ± 0.1
CUGAAGCAAUAUUACGUGCC	–	-1.64 ± 0.49
AGGCAGCAAUAUUACGAUUG	-3.13 ± 0.17	-2.4 ± 0.22
GGGGAGCAAUAUUACGUCUA	–	-2.6 ± 0.37
GAACAGCAAUAUUACGCUGA	-3.29 ± 0.2	-2.04 ± 0.14
AUUGAGCAAUAUUACGCGUG	-2.28 ± 0.16	-2.32 ± 0.23
CCUCAGCAAUAUUACGUCCG	-1.86 ± 0.072	-0.0776 ± 0.11
CUCAAGCAAUAUUACGCAUG	-4.22 ± 0.36	-1.65 ± 0.18
GCCCAGCAAUAUUACGGCCU	-2.68 ± 0.16	-0.992 ± 0.13
GGAUAGCAAUAUUACGAGCG	-0.76 ± 0.1	-0.0359 ± 0.088
GUGUAGCAAUAUUACGCUUG	-1.07 ± 0.16	-1.57 ± 0.27
AAACAGCAAUAUUACGACCU	-0.0846 ± 0.062	-0.604 ± 0.076
GGAGAGCAAUAUUACGUGCC	–	-2.38 ± 0.42
ACGGAGCAAUAUUACGCGUA	-2.62 ± 0.12	-1.32 ± 0.11
